Measurements: patent US7612163B1, “Prokineticin 2β peptide and its use” (Janssen Pharmaceutica N.V., priority 2004, dated 2009)

Key:
PKR2 [1] = molecular target: T1, PKR2 (Homo sapiens, UniProt Q8NFJ6); experiment: Radioligand competition binding assay (125I-PK2-f), PKR2 expressing COS-7 cells; design: The full-length cDNA coding regions for both PKR1 and PKR2 were PCR-amplified from human fetal brain cDNA; expressed in transfected cells; host or cells: COS-7 (transient, pCIneo); settings: FIG. 4B
T1 sequence (Q8NFJ6 whole entry): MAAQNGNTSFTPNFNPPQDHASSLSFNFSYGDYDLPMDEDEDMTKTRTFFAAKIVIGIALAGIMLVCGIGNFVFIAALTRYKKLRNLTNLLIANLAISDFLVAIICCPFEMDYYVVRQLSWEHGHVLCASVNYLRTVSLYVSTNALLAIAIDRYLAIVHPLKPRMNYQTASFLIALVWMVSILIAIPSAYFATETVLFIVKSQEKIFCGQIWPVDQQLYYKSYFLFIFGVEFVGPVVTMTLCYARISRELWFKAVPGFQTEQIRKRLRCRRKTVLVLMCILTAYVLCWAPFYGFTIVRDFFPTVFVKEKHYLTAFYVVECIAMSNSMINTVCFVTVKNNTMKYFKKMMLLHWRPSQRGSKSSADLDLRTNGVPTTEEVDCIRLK
Protocol: (§1) FIGS. 4A and 4B graphically illustrate that PKs bind the PKR1 and PKR2 with different affinities. COS-7 cells transiently expressing PKR1 or PKR2 were seeded to 96-well plates. ^125I-labeled PK2-f was added to each well at a final concentration of 100 pM. Different concentrations of PK1, PK2 or PK2β were added to the assays as the competitors. All assays were performed in triplicates. The results are mean values (±S.E.M) of triplicates. FIG. 4A provides the results of the binding assay using PKR1 expressing cells.
(§2) Expression, purification, and iodination of C-terminal FLAG-tagged PK2. C-terminal FLAG-tagged PK2 (PK2-f) was constructed as described (Soga et al., 2002). Two primers P9: ATCGAGAATTCGCCACCATGAGGAGCCTGTGCTGCGCCC (SEQ.ID.NO.:11) and P10: GGATCCCTACTTATCGTCGTCATCCTTATAATCCTTTTGGGCTAAACA (SEQ.ID.NO.:12) were used to amplify human whole brain cDNA (Clontech). The PCR-amplified PK2-f was cloned into a mammalian expression vector pCMV-sport1 (Invitrogen). The resulting clones were sequenced to confirm the identities and transfected into COS-7 cells using LipofectAmine (Invitrogen). Three days after transfection, the cell culture supernatant was collected and run through an ANTI-FLAG M2 agarose (Sigma) affinity column. The column was washed with PBS and eluted with […] Glycine HCl, pH 3.0. The eluted protein fraction was immediately neutralized with 1 M Tris-HCl, pH 8.0 and then further purified by reverse-phase HPLC using a C4 column (Vydac). The purified recombinant PK2-f protein was iodinated using Iodogen reagent (Pierce, Rockford, Ill.) and ^125I-NaI (PerkinElmer, Boston, Mass.) as described by Pierce. The iodinated PK2-f was purified by a G-50 (Amersham Pharmacia Biotech) gel filtration column.
(§3) Radio-Ligand Binding Assays. PKR1 and PKR2 in the expression vector pCIneo (Promega) were transfected into COS-7 cells using LipofectAmine (Invitrogen). […] After the plates were washed three times with ice cold PBS, Microscint-40 (Packard, Meriden, Conn.) was added and the plates were counted on a Topcount (Packard).

PKR1 [2] = molecular target: T2, PKR1 (Homo sapiens, UniProt Q8TCW9); experiment: Radioligand competition binding assay (125I-PK2-f), PKR1 expressing COS-7 cells; design: The full-length cDNA coding regions for both PKR1 and PKR2 were PCR-amplified from human fetal brain cDNA; expressed in transfected cells; host or cells: COS-7 (transient, pCIneo); settings: FIG. 4A
T2 sequence (Q8TCW9 whole entry): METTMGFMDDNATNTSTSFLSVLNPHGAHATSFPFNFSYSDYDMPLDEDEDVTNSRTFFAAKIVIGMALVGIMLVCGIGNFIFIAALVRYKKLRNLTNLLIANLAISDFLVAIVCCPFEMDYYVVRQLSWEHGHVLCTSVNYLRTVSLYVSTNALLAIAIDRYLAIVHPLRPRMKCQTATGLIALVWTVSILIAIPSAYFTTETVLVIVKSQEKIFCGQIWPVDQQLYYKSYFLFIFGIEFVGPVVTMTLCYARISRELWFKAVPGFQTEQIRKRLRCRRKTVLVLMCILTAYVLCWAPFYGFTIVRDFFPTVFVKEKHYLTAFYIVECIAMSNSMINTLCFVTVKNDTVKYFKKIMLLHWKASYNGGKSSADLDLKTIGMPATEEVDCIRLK
Protocol: as §1, §2, §3

PKR2 [3] = molecular target: T1, PKR2; experiment: cAMP accumulation (cAMP [125I] FlashPlate) in HEK 293 cells co-expressing PKR2/Gs; format: cell-based; design: The full-length cDNA coding regions for both PKR1 and PKR2 were PCR-amplified from human fetal brain cDNA; expressed in transfected cells; host or cells: HEK293 (transient, pCIneo, co-transfected with Gs plasmid); settings: FIG. 8C
Protocol: FIGS. 8B and 8C illustrate results from HEK 293 cells co-expressing PKR1/Gs (FIG. 8B) or PKR2/Gs (FIG. 8C) stimulated with different PKs at various concentrations (the accumulated cAMP was measured by a cAMP [^125I] FlashPlate Assay kit; the results are mean values (±S.E.M) of triplicate experiments (legend: ▪, PK1; ▴, PK2; ▾, PK2β)).
In a different experiment, PKR1 and PKR2 in the expression vector pCIneo (Promega) were co-transfected with the Gs expression plasmid into HEK293 cells using LipofectAmine (Invitrogen). Two days after transfection, cells were detached with 10 mM EDTA in PBS, resuspended in Dulbecco's Modified Eagle's Medium/F12 (DMEM/F12) media, and then plated on 96-well plates at a density of 50,000 cells per well. Two hours after the seeding, cells culture medium was replaced with DMEM/F12 containing 2 mM isobutylmethylxanthine (Sigma) and incubated for 30 min. Different concentrations of PK1, PK2 or PK2β were added to cells and incubated for an additional 30 min in a final volume of 200 μl/well. The reaction was stopped and cAMP was extracted by adding 20 μl of 0.5 N HCl to each well. Cell culture media were tested for cAMP concentrations by the cAMP [^125I] FlashPlate Assay kit (PerkinElmer) as described by the manufacturer.

PKR2 [4] = molecular target: T1, PKR2; experiment: Intracellular Ca2+ mobilization (FLIPR, Fluo-3) in PKR2 expressing HEK 293 cells; format: cell-based; design: The full-length cDNA coding regions for both PKR1 and PKR2 were PCR-amplified from human fetal brain cDNA; expressed in transfected cells; (transient, pCIneo)
Protocol: (§4) FIGS. 5A and 5B graphically illustrate that PKs stimulate Ca^2+ mobilization in HEK 293 cells expressing PKR1 or PKR2 at different potencies. HEK 293 cells transiently expressing PKR1 or PKR2 were seeded in 96-well plates, loaded with Ca^2+ dye Fluo-3 and then stimulated with different concentrations of PK1, PK2 or PK2β. The release of Ca^2+ was measured with a fluorescence imaging plate reader (FLIPR). The results are mean values (±S.E.M) of triplicate experiments. […] FIG. 5B provides the results for Ca^2+ mobilization in PKR2 expressing cells (legend: ▪, PK1; ▴, PK2; ▾, PK2β).
(§5) Intracellular Ca^2+ Mobilization Assays. PKR1 and PKR2 in the expression vector pCIneo (Promega) were transfected into HEK293 cells using LipofectAmine (Invitrogen). Two days after transfection, cells were detached using PBS containing 10 mM EDTA and seeded in poly-D-lysine coated 96-well black tissue culture plates (BD Biosciences).

PKR1 [5] = molecular target: T2, PKR1; experiment: Intracellular Ca2+ mobilization (FLIPR, Fluo-3) in PKR1 expressing HEK 293 cells; format: cell-based; design: The full-length cDNA coding regions for both PKR1 and PKR2 were PCR-amplified from human fetal brain cDNA; expressed in transfected cells; (transient, pCIneo)
Protocol: as §4, §5

“AVITGACDKDSQCGGGMCCAVSIWVK SIRICTPMGKLGDSCHPLTRKNNFGNGRQE (AVITGACDKDSQCGGGMCCAVSIWVKSIRICTPMGKLGDSCHPLTRKNNFGNGRQE; listed as Homo sapiens) [PK2β, 56-amino acid mature peptide processed from PK2L pro-peptide by proteolytic (furin) cleavage; recombinant from COS-7 cells]” was tested, and the “Binding to PKR2, in words” value (PKR2 [1]) was “marginal active at high concentrations”, the “Binding to PKR1, in words” value (PKR1 [2]) was “high affinities” and the “cAMP accumulation in PKR2 expressing HEK293 cells, in words” value (PKR2 [3]) was “marginal activity at high concentrations”. For the same sequence, the “Receptor selectivity in Ca2+ mobilization, in words” value (PKR2 [4]; PKR1 versus PKR2, FIGS. 5A, 5B) was “only active at PKR1”, the “Ca2+ response potency in PKR2-expressing cells, fold less potent than PK1 and PK2” value (PKR2 [4]; relative to PK1 and PK2) was “approximately 50 fold” and the “Agonist character at PKR1, in words” value (PKR1 [5]) was “potent full agonist”.
